Patent US20130243795A1 (Janssen / Centocor, published 2013)
Positions count from the first letter of the chain named.

How the values were obtained:
[1] = target: T1, Human CD27 ECD (ECD 1-173, His6) (human, UniProt P26842 21-193, biotinylated on amine residues (NHS-ester) where used biotinylated); assay: Fab format, pIX display and binding
T1 construct: also called biotinylated human CD27 ECD

[2] = target: T2, Human CD27 ECD truncated (ECD 1-121, cleavage site, His6) (human); assay: ProteOn SPR, purified mAb, CD27-His
T2 construct: also called human CD27 ECD with His Tag; CD27-His
T2 chain: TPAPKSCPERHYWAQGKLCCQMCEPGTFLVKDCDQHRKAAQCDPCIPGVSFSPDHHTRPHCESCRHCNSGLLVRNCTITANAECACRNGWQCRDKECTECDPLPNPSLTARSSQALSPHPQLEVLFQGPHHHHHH

[3] = target: T3, Human CD27 ECD, monomeric soluble (construct limits not stated) (human, UniProt P26842 20-191); assay: Biacore SPR, purified mAb
T3 construct: extracellular domain; target of the Biacore assays; also called monomeric soluble CD27; CD27-His
T3 sequence (P26842 20-191): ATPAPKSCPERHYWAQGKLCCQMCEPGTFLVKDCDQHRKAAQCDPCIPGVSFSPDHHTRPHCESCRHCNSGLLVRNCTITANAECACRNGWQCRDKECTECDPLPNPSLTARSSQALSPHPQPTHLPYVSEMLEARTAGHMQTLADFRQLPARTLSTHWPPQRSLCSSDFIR

[4] = target: T3, Human CD27 ECD, monomeric soluble …; assay: Biacore SPR, purified mAb; reference M160
[5] = target: T2, Human CD27 ECD truncated (ECD 1-121, …); assay: ProteOn SPR, purified mAb, CD27-His
[6] = target: T3, Human CD27 ECD, monomeric soluble …; assay: Biacore SPR, purified mAb; reference M166
[7] = target: T3, Human CD27 ECD, monomeric soluble …; assay: Biacore SPR, purified mAb; reference M158

B1: Parent Fab (VH3-23/Vk012 HFR Fab of C2191) (Fab, V domains shown)
VH: EVQLLESGGGLVQPGGSLRLSCAASGFTFSSYTMSWVRQAPGKGLEWVSYISSGGGNTYYPDSVKGRFTISRDNSKNTLYLQMNSLRAEDTAVYYCARHRGNPFDYWGQGTLVTVSS
VL: DIQMTQSPSSLSASVGDRVTITCRASKSVSTSGYSFMHWYQQKPGKAPKLLIYLASNLESGVPSRFSGSGSGTDFTLTISSLQPEDFATYYCQHSRELPWTFGQGTKVEIK
notes: Fab with human CH1 and Ck in the pIX phage display vector; also called H39/L40; parental HFR Fab
Does B1 bind [1]?
Result: binds

B2: M169 (antibody, V domains shown)
VH: EVQLVQSGAEVKKPGESLKISCKGSGYAFSSSWMNWVRQMPGKGLEWMGRIYSGDGDTNYNGKFKGQVTISADKSISTAYLQWSSLKASDTAMYYCARSDYYGDYGFAYWGQGTLVTVSS
VL: DIQMTQSPSSLSASVGDRVTITCKASQSVDYAGDSFMNWYQQKPGKAPKLLIYAASNLESGVPSRFSGSGSGTDFTLTISSLQPEDFATYYCQQSNEDPYTFGQGTKVEIK
notes: isotype not restated (path 2 mAbs were IgG4 Ser to Pro, Ala/Ala / kappa); also called H221, L219; CM169
Which results are given for B2?
Kd [2]: 0.059 nM; koff [2]: 0.000139 s⁻¹; kon [2]: 2.36e+06 M⁻¹ s⁻¹; Kd [3]: 0.069 nM; koff [3]: 0.000102 s⁻¹; kon [3]: 1.48e+06 M⁻¹ s⁻¹; fold improvement in KD against the corresponding VH1-46 variant [4]: 2 fold

B3: M671 (antibody, V domains shown)
VH: B2 VH with G56A, G62Q
VL: B2 VL with D34E
notes: isotype not restated (path 2); also called H258,L266
What does the source list for B3?
Kd [2]: 0.039 nM; koff [2]: 9.73e-05 s⁻¹; kon [2]: 2.52e+06 M⁻¹ s⁻¹; fold lower KD against the parental mAb M169 [5]: ~2 fold

B4: M55 (VH1-46/Vk012 HFR Fab of C2177) (Fab, V domains shown)
VH: QVQLVQSGAEVKKPGASVKVSCKASGYAFSSSWMNWVRQAPGQGLEWMGRIYPGDGDTNYNGKFKGRVTMTRDTSTSTVYMELSSLRSEDTAVYYCARSDYYGDYGFAYWGQGTLVTVSS
VL: B2 VL with F36Y, V108L
notes: Fab with human CH1 and Ck in the pIX phage display vector; also called H25/L36; parent HFR Fab
Does B4 bind [1]?
Result: binds

B5: M170 (antibody, V domains shown)
VH: B2 VH
VL: B2 VL with G33H, D34E
notes: isotype not restated (path 2); also called H221, L217
Which results are given for B5?
Kd [3]: 0.07 nM; koff [3]: 0.000116 s⁻¹; kon [3]: 1.66e+06 M⁻¹ s⁻¹; fold improvement in KD against the corresponding VH1-46 variant [6]: 2 fold

B6: M171 (antibody, V domains shown)
VH: B2 VH
VL: B2 VL with F36Y
notes: isotype not restated (path 2); also called H221, L220
For B6, which “fold improvement in KD against the corresponding VH1-46 variant” value [7] is on record?
The value was 2 fold.

What about the Kd [3] of the same binder?
The Kd was 0.234 nM.

And the koff [3]?
The koff was 0.000358 s⁻¹.

And the kon [3]?
Its kon is 1.53e+06 M⁻¹ s⁻¹.

B7: M668 (antibody, V domains shown)
VH: B4 VH with P53S, G56A, N61A, G62Q
VL: B2 VL with D34E
notes: isotype not restated (path 2); also called H255,L266
How did the Kd [2] turn out when B7 was run?
The Kd was 0.06 nM.

And the koff [2]?
Its koff is 0.000129 s⁻¹.

And the kon [2]?
The kon was 2.14e+06 M⁻¹ s⁻¹.

And the “fold lower KD against the parental mAb M160” value [5]?
The value was about 2 fold.
